Molecular target: T1, LRP1 of rat retinal ganglion cells (rat, UniProt G3V928 20-4545)
T1 construct: Endogenous LRP1 in the rat retina (ganglion cell layer); also called LRP1 on retinal ganglion cells
Assay: fluorescent immunostaining of rat retina sections after intravitreal administration (colocalisation in the ganglion cell layer)
Procedure: Frozen specimen preparation and immunofluorescence staining of rat eyeballs were performed in the following procedures. [0212] (1) Thinly sliced sections were prepared in the same manner as in the HE staining method. [0213] (2) 15% blocking buffer (in PBS, goat 15% serum, 0.05% Tween 20) was added and reacted at room temperature for one hour. [0214] (3) Washing was performed with PBS for 15 minutes. [0215] (4) A Primary antibody ([…] in 1% blocking buffer) was added and incubated overnight at 4° C. [0216] (5) Washing was performed with PBS for 15 minutes. [0217] (6) A secondary antibody (Alexa Fluor 488-bound goat anti-rabbit IgG (dilution 1:500, Invitrogen)) and Alexa Fluor 594-bound goat anti-human IgG (dilution 1:500, Invitrogen)) were added and reacted at room temperature for one hour. [0218] (7) Washing was performed with PBS containing Heochst33342 (1:2000 dilution) for one minute. [0219] (8) After encapsulation, observation was performed with a fluorescence microscope.
In the above experiment, it was observed by fluorescent immunostaining whether C2-D11 IgG binds to LRP1 of retinal ganglion cells after being administered into the vitreous body of rats. […] On the other hand, it was shown that the anti-OVA antibody was not colocalized.

T1 sequence (G3V928 20-4545 limits assumed): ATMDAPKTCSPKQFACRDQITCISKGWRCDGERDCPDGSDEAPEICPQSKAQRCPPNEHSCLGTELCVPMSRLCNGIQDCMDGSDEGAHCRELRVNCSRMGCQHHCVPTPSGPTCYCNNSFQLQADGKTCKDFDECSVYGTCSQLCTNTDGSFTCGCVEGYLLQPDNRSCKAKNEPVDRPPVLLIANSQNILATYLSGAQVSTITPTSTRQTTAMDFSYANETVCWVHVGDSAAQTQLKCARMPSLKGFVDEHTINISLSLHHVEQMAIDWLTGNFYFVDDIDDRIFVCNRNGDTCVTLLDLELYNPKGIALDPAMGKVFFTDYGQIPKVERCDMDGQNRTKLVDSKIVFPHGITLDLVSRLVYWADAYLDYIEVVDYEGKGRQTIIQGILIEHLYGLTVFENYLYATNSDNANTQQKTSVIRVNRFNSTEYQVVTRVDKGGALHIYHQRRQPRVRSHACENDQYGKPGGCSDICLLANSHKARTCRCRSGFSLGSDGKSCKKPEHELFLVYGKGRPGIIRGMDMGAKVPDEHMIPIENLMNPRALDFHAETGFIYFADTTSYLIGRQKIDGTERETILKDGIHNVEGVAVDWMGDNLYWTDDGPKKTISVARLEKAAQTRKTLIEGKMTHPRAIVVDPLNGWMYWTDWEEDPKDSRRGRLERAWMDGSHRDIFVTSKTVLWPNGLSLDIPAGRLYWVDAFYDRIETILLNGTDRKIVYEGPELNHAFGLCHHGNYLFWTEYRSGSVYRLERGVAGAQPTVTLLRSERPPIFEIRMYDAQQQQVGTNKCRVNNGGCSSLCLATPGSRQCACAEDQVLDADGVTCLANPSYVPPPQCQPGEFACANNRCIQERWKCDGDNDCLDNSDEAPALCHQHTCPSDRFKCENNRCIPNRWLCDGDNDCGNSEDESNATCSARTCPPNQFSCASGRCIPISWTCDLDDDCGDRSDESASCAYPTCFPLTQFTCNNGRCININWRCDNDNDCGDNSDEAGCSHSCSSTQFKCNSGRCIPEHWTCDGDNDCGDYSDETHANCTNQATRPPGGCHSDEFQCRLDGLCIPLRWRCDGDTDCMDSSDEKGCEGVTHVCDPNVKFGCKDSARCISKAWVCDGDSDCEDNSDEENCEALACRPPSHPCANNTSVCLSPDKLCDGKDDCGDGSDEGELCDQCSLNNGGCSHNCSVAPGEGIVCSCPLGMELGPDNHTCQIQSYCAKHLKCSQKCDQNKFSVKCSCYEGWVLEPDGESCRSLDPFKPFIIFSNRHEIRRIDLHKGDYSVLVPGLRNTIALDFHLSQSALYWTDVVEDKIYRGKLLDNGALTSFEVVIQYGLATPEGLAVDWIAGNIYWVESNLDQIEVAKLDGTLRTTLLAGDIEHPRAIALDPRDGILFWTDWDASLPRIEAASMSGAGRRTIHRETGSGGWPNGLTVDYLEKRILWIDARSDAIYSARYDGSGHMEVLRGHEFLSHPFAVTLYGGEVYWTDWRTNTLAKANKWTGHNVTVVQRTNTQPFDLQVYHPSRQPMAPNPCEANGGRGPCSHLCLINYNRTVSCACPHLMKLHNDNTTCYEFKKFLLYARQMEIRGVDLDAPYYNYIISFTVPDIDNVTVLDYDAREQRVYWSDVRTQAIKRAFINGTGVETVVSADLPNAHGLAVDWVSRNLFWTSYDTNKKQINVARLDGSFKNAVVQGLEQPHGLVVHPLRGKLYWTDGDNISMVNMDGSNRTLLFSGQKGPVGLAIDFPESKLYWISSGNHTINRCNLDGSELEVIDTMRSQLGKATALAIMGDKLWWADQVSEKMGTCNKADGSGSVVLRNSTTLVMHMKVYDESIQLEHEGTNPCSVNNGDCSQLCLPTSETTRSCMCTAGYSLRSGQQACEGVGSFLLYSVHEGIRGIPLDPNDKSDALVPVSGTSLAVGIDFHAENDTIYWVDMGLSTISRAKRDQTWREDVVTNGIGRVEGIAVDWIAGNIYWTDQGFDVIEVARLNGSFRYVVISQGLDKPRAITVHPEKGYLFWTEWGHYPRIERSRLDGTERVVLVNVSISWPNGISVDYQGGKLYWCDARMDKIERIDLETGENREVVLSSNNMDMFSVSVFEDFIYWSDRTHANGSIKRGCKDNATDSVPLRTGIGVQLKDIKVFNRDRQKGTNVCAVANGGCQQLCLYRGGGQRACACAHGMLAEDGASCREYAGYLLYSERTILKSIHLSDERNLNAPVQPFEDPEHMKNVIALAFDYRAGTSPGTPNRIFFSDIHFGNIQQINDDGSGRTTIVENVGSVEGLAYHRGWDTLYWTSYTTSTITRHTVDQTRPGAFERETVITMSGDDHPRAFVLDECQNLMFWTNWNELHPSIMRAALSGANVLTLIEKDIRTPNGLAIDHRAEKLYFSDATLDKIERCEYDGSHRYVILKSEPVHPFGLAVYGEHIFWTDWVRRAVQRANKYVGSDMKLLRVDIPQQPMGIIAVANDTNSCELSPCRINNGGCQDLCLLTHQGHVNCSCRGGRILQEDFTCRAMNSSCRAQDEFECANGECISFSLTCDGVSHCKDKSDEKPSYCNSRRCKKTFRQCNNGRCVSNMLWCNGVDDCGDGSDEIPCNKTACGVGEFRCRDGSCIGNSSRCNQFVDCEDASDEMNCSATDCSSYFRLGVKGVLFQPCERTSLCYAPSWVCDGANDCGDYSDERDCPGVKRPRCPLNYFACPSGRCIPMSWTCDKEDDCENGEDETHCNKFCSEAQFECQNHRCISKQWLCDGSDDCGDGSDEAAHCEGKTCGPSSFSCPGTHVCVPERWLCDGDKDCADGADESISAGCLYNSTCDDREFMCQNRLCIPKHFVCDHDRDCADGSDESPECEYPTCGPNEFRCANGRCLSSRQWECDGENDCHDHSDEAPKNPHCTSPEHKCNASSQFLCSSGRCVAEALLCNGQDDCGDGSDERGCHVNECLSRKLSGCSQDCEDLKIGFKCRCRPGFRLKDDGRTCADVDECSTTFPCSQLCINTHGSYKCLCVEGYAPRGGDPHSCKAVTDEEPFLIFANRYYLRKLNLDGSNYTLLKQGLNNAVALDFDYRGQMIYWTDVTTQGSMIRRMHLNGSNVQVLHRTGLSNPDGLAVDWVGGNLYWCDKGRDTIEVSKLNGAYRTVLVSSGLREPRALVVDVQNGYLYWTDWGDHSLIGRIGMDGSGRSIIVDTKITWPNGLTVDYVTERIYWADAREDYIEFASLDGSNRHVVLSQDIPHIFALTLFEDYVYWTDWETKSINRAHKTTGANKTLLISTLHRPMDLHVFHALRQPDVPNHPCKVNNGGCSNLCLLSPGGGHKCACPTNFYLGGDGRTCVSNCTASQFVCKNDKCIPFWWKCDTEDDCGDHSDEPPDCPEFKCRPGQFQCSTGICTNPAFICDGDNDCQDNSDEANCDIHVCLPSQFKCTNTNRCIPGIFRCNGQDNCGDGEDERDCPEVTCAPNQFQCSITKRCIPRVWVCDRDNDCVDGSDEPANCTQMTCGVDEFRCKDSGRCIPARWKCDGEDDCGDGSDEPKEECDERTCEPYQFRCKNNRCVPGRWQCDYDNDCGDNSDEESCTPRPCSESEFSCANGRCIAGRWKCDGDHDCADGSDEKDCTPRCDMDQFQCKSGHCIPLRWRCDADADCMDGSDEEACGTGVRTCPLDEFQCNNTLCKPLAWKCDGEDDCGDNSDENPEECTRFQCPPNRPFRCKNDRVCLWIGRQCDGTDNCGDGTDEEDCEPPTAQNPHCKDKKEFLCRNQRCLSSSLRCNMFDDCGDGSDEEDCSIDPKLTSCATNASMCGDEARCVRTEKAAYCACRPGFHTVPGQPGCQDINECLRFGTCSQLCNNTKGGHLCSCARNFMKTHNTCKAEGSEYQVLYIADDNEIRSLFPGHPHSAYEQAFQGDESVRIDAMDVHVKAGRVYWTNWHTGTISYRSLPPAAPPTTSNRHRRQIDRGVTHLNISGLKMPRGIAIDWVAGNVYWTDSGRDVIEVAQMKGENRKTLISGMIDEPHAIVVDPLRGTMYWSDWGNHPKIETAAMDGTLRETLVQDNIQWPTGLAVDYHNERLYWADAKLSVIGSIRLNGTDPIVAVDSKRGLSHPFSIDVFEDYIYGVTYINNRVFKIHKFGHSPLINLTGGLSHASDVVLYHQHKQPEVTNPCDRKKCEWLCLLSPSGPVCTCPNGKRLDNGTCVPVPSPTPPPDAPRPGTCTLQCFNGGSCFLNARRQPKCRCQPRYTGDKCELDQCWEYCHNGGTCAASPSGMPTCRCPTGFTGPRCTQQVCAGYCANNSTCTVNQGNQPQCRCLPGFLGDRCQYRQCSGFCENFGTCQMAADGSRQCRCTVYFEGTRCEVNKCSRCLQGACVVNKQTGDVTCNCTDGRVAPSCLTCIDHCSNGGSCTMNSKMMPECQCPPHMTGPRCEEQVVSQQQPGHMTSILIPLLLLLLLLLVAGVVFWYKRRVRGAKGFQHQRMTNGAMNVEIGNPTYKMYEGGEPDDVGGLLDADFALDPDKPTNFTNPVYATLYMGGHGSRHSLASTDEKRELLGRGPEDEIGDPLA

B1: anti-LRP1 human IgG1 antibody prepared from C2_D11 (antibody, V domains shown)
VH: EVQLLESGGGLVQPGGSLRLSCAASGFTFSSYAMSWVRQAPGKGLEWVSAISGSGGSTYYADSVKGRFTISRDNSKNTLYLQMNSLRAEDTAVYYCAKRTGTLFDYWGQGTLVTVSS
VL: SSELTQDPAVSVALGQTVRITCQGDSLRSYYASWYQQKPGQAPVLVIYGKNNRPSGIPDRFSGSSSGNTASLTITGAQAEDEADYYCNSSQAQRNAVVFGGGTKLTVLG
notes: VH and VL of C2_D11 were put into expression vectors with a human IgG1 Fc region and expressed in HEK-293; also called C2-D11 IgG; human C2-D11 IgG
  binding result: binds

— patent publication US20240034787A1 (TOKYO UNIVERSITY OF PHARMACY AND LIFE SCIENCES, published 2024)
